Among the data in publication PMC5413349 are mean duration of plus-end tracking events of dynein on growing microtubules with EB1 and dynactin after addition of LIS1 values, retold here.

In the assay the target is human cytoplasmic dynein-1 complex (recombinant, SNAPf tag on the heavy chain) (human) (UniProt Q14204).

B1: human full-length Lissencephaly-1 (LIS1), unlabelled (natural protein)
chain: MVLSQRQRDELNRAIADYLRSNGYEEAYSVFKKEAELDVNEELDKKYAGLLEKKWTSVIRLQKKVMELESKLNEAKEEFTSGGPLGQKRDPKEWIPRPPEKYALSGHRSPVTRVIFHPVFSVMVSASEDATIKVWDYETGDFERTLKGHTDSVQDISFDHSGKLLASCSADMTIKLWDFQGFECIRTMHGHDHNVSSVAIMPNGDHIVSASRDKTIKMWEVQTGYCVKTFTGHREWVRMVRPNQDGTLIASCSNDQTVRVWVVATKECKAELREHEHVVECISWAPESSYSSISEATGSETKKSGKPGPFLLSGSRDKTIKMWDVSTGMCLMTLVGHDNWVRGVLFHSGGKFILSCADDKTLRVWDYKNKRCMKTLNAHEHFVTSLDFHKTAPYVVTGSVDQTVKVWECR
Regarding B1, the mean duration of plus-end tracking events of dynein on growing microtubules with EB1 and dynactin after addition of LIS1 turned out to be 14 s.
